Target: Coxsackievirus and adenovirus receptor (CAR), endogenous on rat spinal cord motor neurons (rat (endogenous in spinal cord motor neurons)) (UniProt Q9R066)
Sequence of UniProt Q9R066 (Q9R066 20-365): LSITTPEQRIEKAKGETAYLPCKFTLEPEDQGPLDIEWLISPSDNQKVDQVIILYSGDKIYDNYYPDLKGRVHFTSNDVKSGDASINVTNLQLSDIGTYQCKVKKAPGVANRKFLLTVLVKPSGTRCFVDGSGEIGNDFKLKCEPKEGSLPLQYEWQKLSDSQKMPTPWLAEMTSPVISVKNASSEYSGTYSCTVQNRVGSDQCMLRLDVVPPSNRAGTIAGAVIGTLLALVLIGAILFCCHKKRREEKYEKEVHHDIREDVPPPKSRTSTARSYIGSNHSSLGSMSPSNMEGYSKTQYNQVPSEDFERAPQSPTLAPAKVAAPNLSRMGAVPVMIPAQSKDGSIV

In the case of “CAV-2 fibre knob, unlabelled recombinant (FK) (domain or fragment)”, the CAV-2 virion uptake in MNs after pre-incubation with saturating concentrations of recombinant FK (blocks CAV-2 virion with CAR) is reported as 76%.

Reference: article PMC2677547
